The text below walks through data of PMC5845890, “Pathophysiological Consequences of Neuronal α-Synuclein Overexpression: Impacts on Ion Homeostasis, Stress Signaling, Mitochondrial Integrity, and Electrical Activity” (Frontiers in Molecular Neuroscience, 2018).

The target in this experiment is T1, Soluble domain (residues 1-209) of human Bcl-Xl (human, UniProt Q07817-1 1-209).
T1 construct: residues left at the N-terminus after thrombin cleavage of the 6XHis tag; Bcl-Xl, human, soluble domain, residues 1-209; 15N-labelled for the titration with peptides; BMRB 19521 (Follis et al., 2014) was used only for the chemical shift assignment; also called 15N-Bcl-Xl; source: BL21 E. coli (pET15b), purified (nickel-sepharose, thrombin digestion, reverse IMAC, size exclusion chromatography); …
Description: NMR titration; 15N-Bcl-Xl with synthetic α-Syn (1-26) peptides; 1H-15N HSQC at 298 K; Hepes 25 mM pH 7.0, NaCl 50 mM, 10% D2O, 1 mM DTT; ΔδN against ligand concentration fitted by a single binding model; Kd averaged over residues 94, 120, 134 and 196 of Bcl-Xl. The conditions noted are these: both partners purified.

A word on the Kd: it is a measure of binding affinity in units of concentration.

T1 sequence (Q07817 other isoform, or with tags, fused parts or gaps): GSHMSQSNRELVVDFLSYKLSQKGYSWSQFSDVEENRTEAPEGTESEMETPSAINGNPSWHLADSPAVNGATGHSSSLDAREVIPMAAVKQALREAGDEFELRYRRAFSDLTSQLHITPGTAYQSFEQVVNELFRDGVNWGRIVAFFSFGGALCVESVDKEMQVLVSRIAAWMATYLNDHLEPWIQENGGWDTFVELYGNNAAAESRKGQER

B1: N-terminal acetylated alpha-synuclein peptide 1-26 (peptide)
peptide: not shown
modifications: acetyl group at the N-terminus
notes: α-Synuclein, human, residues 1-26; also called α-Syn (1-26) peptide with an acetyl group at the N-terminus; source: synthetic peptide (Fmoc solid-phase synthesis, reversed-phase HPLC)
On to B1, for which binding was characterised by a dissociation constant (Kd) of 1950 ± 560 µM.
